# Measurements from the supplement of paper PMC10126150.
# ± gives the standard deviation of the averaged measurements.
# Tested on: ATP
# Test: switch fluorescence ratio, 500 uM ATP over buffer (Cy3 cluster intensity, sum of 5 cycles each) (fold (ratio)); higher = stronger signal-on switching upon ATP binding; sequences stand for … in TCGTCGGCAGCGTCAGATGTGTATAAGAGACAGTTTTTTTTTTTTTTTTTTTTTTTTT…TC
# Details: aptamer strand: ATP DNA aptamer (quencher-CACCTGGGGGAGTATTGCGGAGGAAGG + anchor), 100 nM annealed; ATP concentration: 500 uM
# Outline: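 Between each of five buffer/ATP cycles, the flow-cell was stripped with NaOH and re-annealed. Each cycle imaged Cy3-labelled switching-strand clusters, annealed to 100 nM quencher-labelled ATP aptamer on a modified Illumina MiSeq flow-cell, first in selection buffer and then after 15 min with 500 uM ATP at 22 °C. The fluorescence ratio is summed target-cycle over summed buffer-cycle Cy3 intensity per cluster, averaged per switch-domain sequence, with clusters outside 100-1000 RFU excluded.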
# 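Also: ATP exposure 15 min at 22 °C before imaging.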
row,Sequence,switch fluorescence ratio
1,GTTGGGCTTT,0.98 ± 0.025
2,GATGAAATTG,0.953 ± 0.045
3,TGGGGAGGGA,0.983 ± 0.033
4,TTCACCGGCA,1.079 ± 0.0089
5,GGTACTTGTT,1.05 ± 0.052
6,TAATAGTGGC,1.06 ± 0.068
7,CAAGAGGGCT,1.024 ± 0.0043
8,GGGGCGGGGG,1.02 ± 0.043
9,TTACTTGACT,1.116 ± 0.0085
10,TCAGTCTGCC,1.03 ± 0.052
11,GGTAGGTGGG,1.01 ± 0.055
12,GGGGCACTGG,1.03 ± 0.028
13,TGATTTTTTG,0.969 ± 0.03
14,CTTTGTAGGG,1.008 ± 0.0029
15,GAGTTAGGGG,0.998 ± 0.018
16,AAGTGGGACC,1.02 ± 0.025
17,GACATTTTGG,1.03 ± 0.042
18,GATTGATTTA,1 ± 0.021
19,GAGTGAAGGT,0.9963 ± 0.008
20,ATGGGACAGC,0.975 ± 0.033
21,GCTGGTGCTC,1.06 ± 0.05
22,ACGATTTAAG,1.03 ± 0.05
23,ATTCTGTAAT,1.01 ± 0.017
24,GGTGGTACGT,0.999 ± 0.022
25,GAGGGCACTT,0.978 ± 0.043
26,ACTATGGCGG,1.03 ± 0.032

row,Sequence,switch fluorescence ratio
1,GACGAAGATC,1.11 ± 0.016
2,TTTGTGATTA,0.9954 ± 0.0093
3,AAGCTCGCCG,0.981 ± 0.06
4,TAGTGGTTCG,1.02 ± 0.023
5,GGCCTGAAAC,0.9929 ± 0.0037
6,TGAGTTTTTG,0.998 ± 0.022
7,CCGCCCTATT,1.4 ± 0.024
8,AATAAGATTG,0.987 ± 0.022
9,TTTGGAAAAC,0.9853 ± 0.0027
10,GGTGGAGGAA,1.027 ± 0.0053
11,ATTTTAGTGC,1.01 ± 0.053
12,CGTTGTGGGA,1.01 ± 0.038
13,ATATTATTAA,0.975 ± 0.014
14,GGCTTTTTTA,1.05 ± 0.028
15,GCCGGGGGGA,1.03 ± 0.086
16,CGGTGAGGGG,0.989 ± 0.011
17,TTGGATTAAC,1.01 ± 0.029
18,CTTGGGGATC,0.979 ± 0.013
19,TTATTGGTAA,1.0091 ± 0.00034
20,GGGGGGTTCT,1.01 ± 0.042
21,ACGTTAAGTT,1.1 ± 0.029
22,TTAATAGGG,1 ± 0.022
23,CATTAATTTG,1.01 ± 0.012
24,GGTCGCCTCA,0.9687 ± 0.0086
25,TCCCCTCGGC,1.08 ± 0.046
26,TTTGGGGCAT,1.032 ± 0.0027

row,Sequence,switch fluorescence ratio
1,GGTTTCTCTT,1.003 ± 0.0099
2,AGTATGTGTC,1.01 ± 0.042
3,ACATTTATGT,0.9939 ± 0.0052
4,CAAGCGGATT,1 ± 0.033
5,GTTTAAATTA,1.02 ± 0.018
6,ACTCTCGAGG,1.24 ± 0.34
7,ATTTAACGGT,1.03 ± 0.022
8,AAGCGAAAAA,1.01 ± 0.092
9,TAAGGGGTAA,0.947 ± 0.019
10,TTTGATGATA,0.981 ± 0.014
11,GGCGTACAAA,0.985 ± 0.019
12,AGACTTTTAT,0.976 ± 0.031
13,CTTTGAGCGA,1.11 ± 0.032
14,CCTTTATGGG,0.9952 ± 0.0095
15,AGGAATAAA,0.976 ± 0.052
16,AATATGGGGG,1.01 ± 0.025
17,TTGAAAATGT,0.96 ± 0.0076
18,AATCAGGCCT,1.05 ± 0.043
19,GCGGGGTTGG,1.01 ± 0.035
20,GATCATCAGT,0.991 ± 0.023
21,TATTATCGGA,0.996 ± 0.048
22,TTTGGGGAAG,1.01 ± 0.025
23,TATTAGTTTT,1.02 ± 0.047
24,GGCGAGGTGT,1 ± 0.034
25,AAAAACTTGT,1.03 ± 0.034
26,GACGCGGCGT,1.02 ± 0.029

row,Sequence,switch fluorescence ratio
1,TGACGAGCTG,1.03 ± 0.035
2,GAGTTAGGCA,1.029 ± 0.0098
3,ACATTGGGGC,0.978 ± 0.046
4,CGGGGCTTAG,1.0342 ± 0.00025
5,GGGTTCAGGG,0.977 ± 0.02
6,CGTTTGTCAG,0.965 ± 0.033
7,GTGTTTTGTC,1.02 ± 0.068
8,TGCCATCCTA,0.9913 ± 0.005
9,GAAATACGGG,1.09 ± 0.043
10,AGAGGGCGGA,1 ± 0.02
11,AAATGGGGAT,1.01 ± 0.032
12,GTTTTGATTA,0.973 ± 0.017
13,CAGGAACTTA,0.9843 ± 0.0052
14,ACCAAATTCA,1.04 ± 0.0087
15,CAAGTGCCTG,1.01 ± 0.025
16,TTCTATATTG,0.996 ± 0.023
17,TGTACAAAAT,0.986 ± 0.047
18,GAGCGGTTAT,1.33 ± 0.42
19,TTATGGAGTT,0.987 ± 0.01
20,TGGGATGTGG,0.986 ± 0.019
21,TTCGTTCCAT,0.986 ± 0.012
22,AGACAGTAGG,1.03 ± 0.03
23,CTGGGGGAAT,1.01 ± 0.013
24,TAAACAGCTG,0.955 ± 0.043
25,AATTTAGTAT,0.996 ± 0.022
26,TGCTCATAGC,1.01 ± 0.021

row,Sequence,switch fluorescence ratio
1,CGTTTGGAGC,0.968 ± 0.031
2,GGGGTTTTCA,1.022 ± 0.0042
3,GACTATAGAT,1.05 ± 0.034
4,AATAGTACTG,1 ± 0.071
5,GATTATTGGA,1.01 ± 0.026
6,AGGTGATTAG,0.986 ± 0.044
7,AAAGTTATAC,1.12 ± 0.037
8,ACAGGGGTTG,0.978 ± 0.033
9,TTATAAGACT,1.044 ± 0.0064
10,TTTTTACGAA,1.01 ± 0.022
11,TTCCGACTTA,1.14 ± 0.19
12,CATGTGGTCA,1.03 ± 0.046
13,TAAAACTTGG,0.999 ± 0.065
14,TGGGGGGAAG,0.994 ± 0.018
15,TAGAGGTAAT,1.01 ± 0.022
16,GGGAATTGTG,0.993 ± 0.06
17,ATTAATCAGT,1.002 ± 0.0083
18,CTGGCACGGA,1 ± 0.063
19,TTAAGGTTGG,0.993 ± 0.031
20,AACGTTATGC,1.13 ± 0.069
21,CTGTTTGCAG,0.987 ± 0.056
22,TTTGTTAGCA,0.98708 ± 0.0008
23,TTATCGGCGC,0.999 ± 0.014
24,ATGATGAATG,0.975 ± 0.054
25,CATTTACCGG,0.996 ± 0.056
26,TGACTCACGG,1.08 ± 0.029

row,Sequence,switch fluorescence ratio
1,GCATCTACGG,1.02 ± 0.019
2,CTGGTTAGGG,0.98 ± 0.018
3,TCTTGCATAG,1.11 ± 0.025
4,GTCGGATGTG,0.954 ± 0.044
5,TGAGTTGGGT,0.986 ± 0.019
6,TTCCTAATTG,1.01 ± 0.012
7,TTGAGGGTAT,0.998 ± 0.023
8,TTGGGGTGCA,0.99 ± 0.018
9,AAAAAATTAT,1.03 ± 0.087
10,TGTTGGACGG,1.07 ± 0.037
11,GGCGCCGGGC,1.02 ± 0.022
12,TTTCTTAGAG,0.992 ± 0.038
13,ATGAATATGC,1.04 ± 0.043
14,AACGGGTTAT,0.995 ± 0.032
15,GGGGACCCTG,0.974 ± 0.029
16,TGCCTGCATT,1.02 ± 0.011
17,ATAAAGCAGT,1.02 ± 0.048
18,TGAGGGAGGG,1.01 ± 0.017
19,GGGGGGGGTA,1 ± 0.044
20,TTTTTTTCTC,0.992 ± 0.056
21,GATGGGCTAA,1.04 ± 0.022
22,TTGACGATGA,1.04 ± 0.025
23,AGTAGGTAGT,0.968 ± 0.019
